In the supplement of paper PMC10065799, “High-throughput profiling of sequence recognition by tyrosine kinases and SH2 domains using bacterial peptide display” (eLife, 2023):

How the values were obtained:
Hck = Hck (UniProt P08631); assay: phosphorylation enrichment, bacterial display (enrichment ratio); higher = better substrate or ligand; peptides without Tyr show the background
EPHB2 = EPHB2 (UniProt P29323); assay: as above
Fer (mouse) = assay: as above
Fyn = Fyn (UniProt P06241); assay: as above
EPHB1 = EPHB1 (UniProt P54762); assay: as above
Fes = Fes (UniProt P07332); assay: as above
AncSZ = assay: as above
FGFR1 = FGFR1 (UniProt P11362); assay: as above
c-Abl (mouse) = assay: as above
FGFR3 = FGFR3 (UniProt P22607); assay: as above
Jak2 = Jak2 (UniProt O60674); assay: as above
c-Src = assay: as above
MERTK = MERTK (UniProt Q12866); assay: as above
c-Src SH2 = assay: SH2 binding enrichment of the phosphorylated peptide, bacterial display (enrichment ratio); higher = better substrate or ligand; peptides without Tyr show the background
SHP2-C SH2 = assay: as above
Grb2 SH2 = Grb2 SH2 (UniProt P62993); assay: as above
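Throughout, for SH2 binding enrichment of the phosphorylated peptide, bacterial display: peptide library displayed on the E. coli surface as eCPX fusions, selected cells deep-sequenced, score is each peptide's frequency after selection divided by its frequency in the input.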
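Throughout, for phosphorylation enrichment, bacterial display: 11-residue human phosphosite peptides and single-mutation variants displayed on the E. coli surface, counted by deep sequencing, each peptide's frequency after selection divided by its frequency in the unselected input library; frequency after pTyr selection over input frequency; kinase dosed for 20-30% of maximal phosphorylation in three min.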

Hck, sequence (P08631 whole entry, looked up): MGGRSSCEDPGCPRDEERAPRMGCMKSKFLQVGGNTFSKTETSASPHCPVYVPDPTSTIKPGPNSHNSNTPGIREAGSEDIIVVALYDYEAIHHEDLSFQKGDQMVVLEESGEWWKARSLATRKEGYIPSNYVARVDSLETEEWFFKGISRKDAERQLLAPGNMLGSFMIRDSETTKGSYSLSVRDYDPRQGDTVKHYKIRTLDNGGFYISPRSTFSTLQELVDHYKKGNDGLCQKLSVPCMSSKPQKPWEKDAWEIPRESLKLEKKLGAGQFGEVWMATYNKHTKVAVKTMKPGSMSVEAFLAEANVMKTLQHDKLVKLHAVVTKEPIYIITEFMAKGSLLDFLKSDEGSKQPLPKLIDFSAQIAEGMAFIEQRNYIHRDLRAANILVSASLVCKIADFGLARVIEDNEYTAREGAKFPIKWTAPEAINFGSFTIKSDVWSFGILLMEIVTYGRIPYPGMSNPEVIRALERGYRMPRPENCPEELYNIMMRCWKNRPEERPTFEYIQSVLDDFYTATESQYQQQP
Fes, sequence (P07332 whole entry, looked up): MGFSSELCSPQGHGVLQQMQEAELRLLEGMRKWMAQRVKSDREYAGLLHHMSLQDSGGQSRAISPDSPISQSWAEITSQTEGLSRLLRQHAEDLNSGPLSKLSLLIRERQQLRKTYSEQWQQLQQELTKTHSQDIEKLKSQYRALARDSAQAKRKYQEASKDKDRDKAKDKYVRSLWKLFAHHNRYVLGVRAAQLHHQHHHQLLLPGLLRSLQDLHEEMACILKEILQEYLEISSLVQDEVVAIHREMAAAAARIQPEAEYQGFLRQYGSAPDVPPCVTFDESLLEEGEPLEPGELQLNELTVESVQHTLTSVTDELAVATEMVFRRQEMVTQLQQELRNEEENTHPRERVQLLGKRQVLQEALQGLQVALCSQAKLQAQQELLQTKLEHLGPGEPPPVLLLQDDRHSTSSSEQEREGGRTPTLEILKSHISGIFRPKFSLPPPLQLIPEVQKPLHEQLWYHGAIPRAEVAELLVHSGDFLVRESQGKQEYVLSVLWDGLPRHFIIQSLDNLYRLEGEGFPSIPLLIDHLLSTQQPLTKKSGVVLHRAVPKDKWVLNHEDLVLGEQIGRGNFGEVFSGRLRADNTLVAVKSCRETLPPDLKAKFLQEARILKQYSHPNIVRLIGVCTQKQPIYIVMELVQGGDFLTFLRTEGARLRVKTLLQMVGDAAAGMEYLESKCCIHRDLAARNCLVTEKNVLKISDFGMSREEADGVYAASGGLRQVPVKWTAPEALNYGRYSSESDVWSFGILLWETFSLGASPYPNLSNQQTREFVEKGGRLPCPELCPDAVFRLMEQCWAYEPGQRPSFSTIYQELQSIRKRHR
EPHB2, sequence (P29323 whole entry, looked up): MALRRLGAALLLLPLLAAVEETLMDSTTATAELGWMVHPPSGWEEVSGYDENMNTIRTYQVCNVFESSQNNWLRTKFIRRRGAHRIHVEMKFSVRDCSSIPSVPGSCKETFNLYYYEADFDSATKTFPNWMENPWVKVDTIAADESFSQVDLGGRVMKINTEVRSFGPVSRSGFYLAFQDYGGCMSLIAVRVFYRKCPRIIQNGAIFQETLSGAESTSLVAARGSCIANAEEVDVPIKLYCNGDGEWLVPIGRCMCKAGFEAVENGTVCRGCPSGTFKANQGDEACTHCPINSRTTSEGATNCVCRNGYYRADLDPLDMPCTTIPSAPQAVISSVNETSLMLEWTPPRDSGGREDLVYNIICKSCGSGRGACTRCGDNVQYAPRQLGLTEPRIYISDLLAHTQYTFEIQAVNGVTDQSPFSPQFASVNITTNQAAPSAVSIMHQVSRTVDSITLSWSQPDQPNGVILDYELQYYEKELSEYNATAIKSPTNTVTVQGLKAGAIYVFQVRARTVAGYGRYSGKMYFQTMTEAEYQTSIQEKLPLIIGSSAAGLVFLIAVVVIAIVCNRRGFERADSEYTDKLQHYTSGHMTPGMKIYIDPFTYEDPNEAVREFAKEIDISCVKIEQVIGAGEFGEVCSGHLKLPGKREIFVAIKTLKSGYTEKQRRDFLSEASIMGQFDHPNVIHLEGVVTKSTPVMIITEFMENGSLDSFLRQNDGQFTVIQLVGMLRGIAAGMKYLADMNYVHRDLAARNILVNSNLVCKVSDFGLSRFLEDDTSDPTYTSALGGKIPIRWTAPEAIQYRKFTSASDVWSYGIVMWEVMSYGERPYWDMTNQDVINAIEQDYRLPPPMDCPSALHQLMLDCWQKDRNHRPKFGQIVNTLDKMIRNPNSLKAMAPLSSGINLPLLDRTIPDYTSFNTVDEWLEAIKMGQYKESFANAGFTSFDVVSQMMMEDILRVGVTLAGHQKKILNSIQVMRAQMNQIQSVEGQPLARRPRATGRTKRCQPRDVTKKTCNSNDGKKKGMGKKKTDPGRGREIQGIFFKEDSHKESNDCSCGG
FGFR3, sequence (P22607 whole entry, looked up): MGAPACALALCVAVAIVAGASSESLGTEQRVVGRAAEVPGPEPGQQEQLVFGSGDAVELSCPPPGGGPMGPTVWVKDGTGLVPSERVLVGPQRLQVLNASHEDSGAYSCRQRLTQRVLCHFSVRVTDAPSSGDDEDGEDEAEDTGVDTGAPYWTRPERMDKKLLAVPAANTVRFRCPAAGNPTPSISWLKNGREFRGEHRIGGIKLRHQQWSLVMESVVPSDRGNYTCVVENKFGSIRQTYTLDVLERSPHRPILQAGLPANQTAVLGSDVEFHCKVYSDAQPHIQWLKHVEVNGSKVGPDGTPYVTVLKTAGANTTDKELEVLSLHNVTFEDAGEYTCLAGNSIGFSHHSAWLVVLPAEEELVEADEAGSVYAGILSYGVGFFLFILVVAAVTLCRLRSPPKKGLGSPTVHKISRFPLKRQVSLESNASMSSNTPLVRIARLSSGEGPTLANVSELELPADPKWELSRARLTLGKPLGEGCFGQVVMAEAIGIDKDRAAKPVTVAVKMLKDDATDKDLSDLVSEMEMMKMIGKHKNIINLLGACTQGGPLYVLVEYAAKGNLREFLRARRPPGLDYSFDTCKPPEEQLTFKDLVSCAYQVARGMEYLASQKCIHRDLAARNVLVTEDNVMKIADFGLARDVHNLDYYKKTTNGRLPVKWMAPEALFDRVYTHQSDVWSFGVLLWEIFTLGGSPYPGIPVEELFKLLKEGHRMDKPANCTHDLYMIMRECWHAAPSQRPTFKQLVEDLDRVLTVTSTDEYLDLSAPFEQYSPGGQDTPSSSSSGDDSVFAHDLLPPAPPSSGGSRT
EPHB1, sequence (P54762 whole entry, looked up): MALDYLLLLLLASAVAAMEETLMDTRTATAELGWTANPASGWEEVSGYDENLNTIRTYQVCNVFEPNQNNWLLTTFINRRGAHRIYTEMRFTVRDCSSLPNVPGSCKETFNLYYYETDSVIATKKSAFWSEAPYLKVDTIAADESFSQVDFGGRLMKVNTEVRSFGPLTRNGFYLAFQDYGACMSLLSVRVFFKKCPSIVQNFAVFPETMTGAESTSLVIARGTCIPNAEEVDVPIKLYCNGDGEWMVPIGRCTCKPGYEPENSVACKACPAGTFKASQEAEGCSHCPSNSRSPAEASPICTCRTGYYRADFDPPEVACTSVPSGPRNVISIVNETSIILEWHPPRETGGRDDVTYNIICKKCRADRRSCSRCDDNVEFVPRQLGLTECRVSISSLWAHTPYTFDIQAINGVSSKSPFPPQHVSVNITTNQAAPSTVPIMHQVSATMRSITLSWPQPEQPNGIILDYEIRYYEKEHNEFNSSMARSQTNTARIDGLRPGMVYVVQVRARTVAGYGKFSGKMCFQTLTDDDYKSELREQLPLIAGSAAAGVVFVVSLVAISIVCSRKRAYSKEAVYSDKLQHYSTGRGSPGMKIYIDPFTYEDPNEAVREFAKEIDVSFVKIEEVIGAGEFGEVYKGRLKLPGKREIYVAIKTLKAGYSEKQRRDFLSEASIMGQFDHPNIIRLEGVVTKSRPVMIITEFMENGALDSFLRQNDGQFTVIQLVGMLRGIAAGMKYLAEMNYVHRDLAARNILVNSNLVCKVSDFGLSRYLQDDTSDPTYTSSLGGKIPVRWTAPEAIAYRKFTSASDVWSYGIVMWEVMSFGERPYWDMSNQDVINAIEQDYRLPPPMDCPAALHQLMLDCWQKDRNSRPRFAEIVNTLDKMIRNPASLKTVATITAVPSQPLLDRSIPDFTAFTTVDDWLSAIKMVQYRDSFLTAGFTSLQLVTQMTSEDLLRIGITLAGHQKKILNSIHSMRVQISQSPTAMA
Grb2 SH2, sequence (P62993 whole entry, looked up, the tested form may be a part): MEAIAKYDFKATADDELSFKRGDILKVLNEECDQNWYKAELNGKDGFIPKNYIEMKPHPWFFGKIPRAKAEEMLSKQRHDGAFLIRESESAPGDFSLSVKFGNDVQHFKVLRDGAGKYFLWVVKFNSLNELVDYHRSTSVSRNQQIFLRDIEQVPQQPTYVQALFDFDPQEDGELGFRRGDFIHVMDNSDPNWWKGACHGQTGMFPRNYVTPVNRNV
Fyn, sequence (P06241 whole entry, looked up): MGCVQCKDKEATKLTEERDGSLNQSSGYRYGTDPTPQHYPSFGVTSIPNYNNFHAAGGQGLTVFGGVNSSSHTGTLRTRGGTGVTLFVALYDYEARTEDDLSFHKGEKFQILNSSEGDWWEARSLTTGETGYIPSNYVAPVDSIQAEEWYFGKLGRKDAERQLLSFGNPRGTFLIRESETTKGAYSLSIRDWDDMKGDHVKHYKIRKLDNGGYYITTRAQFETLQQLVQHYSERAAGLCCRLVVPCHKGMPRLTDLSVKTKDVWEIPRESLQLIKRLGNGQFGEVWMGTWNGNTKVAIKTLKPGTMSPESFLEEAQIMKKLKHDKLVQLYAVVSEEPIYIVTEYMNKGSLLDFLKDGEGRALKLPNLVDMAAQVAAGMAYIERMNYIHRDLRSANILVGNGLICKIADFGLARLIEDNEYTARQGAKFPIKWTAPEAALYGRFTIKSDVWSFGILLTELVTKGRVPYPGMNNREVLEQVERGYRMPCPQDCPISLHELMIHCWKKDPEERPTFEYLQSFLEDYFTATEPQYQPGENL

Row | Sequence | phosphorylation enrichment (Hck) | phosphorylation enrichment (EPHB2) | phosphorylation enrichment (Fer (mouse)) | phosphorylation enrichment (Fyn) | phosphorylation enrichment (EPHB1) | phosphorylation enrichment (Fes) | phosphorylation enrichment (AncSZ) | phosphorylation enrichment (FGFR1) | phosphorylation enrichment (c-Abl (mouse)) | phosphorylation enrichment (FGFR3) | phosphorylation enrichment (Jak2) | phosphorylation enrichment (c-Src) | phosphorylation enrichment (MERTK) | SH2 binding enrichment (c-Src SH2) | SH2 binding enrichment (SHP2-C SH2) | SH2 binding enrichment (Grb2 SH2)
1 | ASYGPNTRVQS [FOXL2_Y258_Y258N] | 0.454 | 0.407 | 0.448 | 0.41 | 0.474 | 0.596 | 0.537 | 0.444 | 0.559 | 0.407 | 0.515 | 0.478 | 0.435 | 0.543 | 0.582 | 0.872
2 | ATARPYRPYII [LRP5_Y1528] | 0.413 | 0.362 | 0.482 | 0.55 | 0.457 | 0.793 | 0.675 | 0.396 | 0.688 | 0.545 | 0.465 | 0.581 | 0.468 | 0.784 | 0.86 | 1.04
3 | AVDMTYDGHPV [FLNB_Y1020_V1018M] | 3.87 | 4.79 | 0.89 | 3.3 | 1.67 | 0.926 | 1.19 | 0.576 | 0.768 | 0.737 | 0.765 | 3.61 | 0.593 | 0.461 | 0.662 | 0.877
4 | AVLSLYASGRN [ACTA1_Y145_T150N] | 0.688 | 0.557 | 0.549 | 0.44 | 0.519 | 0.989 | 0.858 | 0.436 | 0.737 | 0.581 | 0.958 | 0.419 | 0.388 | 0.669 | 0.976 | 0.867
5 | AVLVQYYMEHH [PTPN11_Y80_E76V] | 0.875 | 1.32 | 0.516 | 0.673 | 2.43 | 1.21 | 0.987 | 0.753 | 0.708 | 0.868 | 0.821 | 0.596 | 0.89 | 1.18 | 1.87 | 1.52
6 | AVVEPYNSILT [TUBA1A_Y185] | 0.43 | 0.365 | 0.377 | 0.434 | 0.489 | 0.83 | 0.686 | 0.438 | 0.534 | 0.496 | 0.802 | 0.453 | 0.415 | 3.31 | 0.899 | 0.866
7 | AYRHGYFDEEM [PLEC_Y2971_R2969H] | 0.643 | 0.631 | 0.526 | 0.593 | 0.664 | 1.05 | 1.03 | 0.676 | 0.742 | 0.657 | 0.827 | 0.461 | 0.5 | 0.634 | 0.771 | 0.893
8 | CASQLCPRHKH [DCTN4_Y263_Y263C] | 0.326 | 0.393 | 0.367 | 0.366 | 0.305 | 0.533 | 0.477 | 0.33 | 0.451 | 0.332 | 0.495 | 0.312 | 0.358 | 1.43 | 1.2 | 1.19
9 | CCNHPYRINGA [CHD7_Y1256_L1257R] | 0.464 | 0.46 | 0.454 | 0.542 | 0.38 | 0.621 | 0.505 | 0.575 | 0.434 | 0.564 | 0.396 | 0.64 | 0.404 | 0.51 | 0.537 | 0.861
10 | CEHRGSLYLAI [TEK_Y897_Y897S] | 0.606 | 0.585 | 0.573 | 0.552 | 0.714 | 1.24 | 1.13 | 0.609 | 0.933 | 0.847 | 1.16 | 0.891 | 1.24 | 0.519 | 0.678 | 0.795
11 | CEQELYSQLVY [WAS_Y102_W97C] | 6.75 | 5.74 | 11.2 | 6.54 | 4.86 | 1.81 | 1.9 | 3.8 | 1.14 | 3.67 | 1.22 | 5.28 | 5.03 | 0.518 | 0.556 | 0.731
12 | CERLPYDASKW [FLT1_Y815] | 0.525 | 0.46 | 0.49 | 0.45 | 0.589 | 1.13 | 0.951 | 0.523 | 0.824 | 0.688 | 1.01 | 0.464 | 0.409 | 0.632 | 0.72 | 0.746
13 | CFVFFYSFLLK [PTEN_Y178_R173C_YF] | 0.578 | 0.72 | 0.487 | 0.459 | 0.473 | 1.03 | 0.997 | 0.423 | 0.86 | 0.865 | 0.987 | 0.519 | 0.557 | 0.789 | 1.8 | 1.78
14 | CGASGYSATST [CERT1_Y143_S138C] | 0.51 | 0.706 | 0.675 | 0.476 | 0.55 | 1.08 | 1.02 | 0.457 | 0.746 | 0.872 | 1.06 | 0.489 | 0.523 | 0.556 | 0.756 | 0.741
15 | CGLPRYRWLTH [TSPAN12_Y143_Y138C] | 0.525 | 0.645 | 0.438 | 0.707 | 0.47 | 0.929 | 0.848 | 0.435 | 0.453 | 0.476 | 0.669 | 0.357 | 0.461 | 0.442 | 0.536 | 0.838
16 | CKRQFYLYKGK [RSPO4_Y112] | 0.43 | 0.49 | 0.431 | 0.432 | 0.333 | 0.926 | 0.836 | 0.427 | 0.438 | 0.704 | 0.746 | 0.312 | 0.331 | 0.856 | 1.15 | 1.84
